The results in this text go back to the DeepSol protein solubility set.

A short description of the series: soluble on expression in E. coli; label from the status in PepcDB or PDB records.
In the case of “MAHHHHHHHRSDASVIVVGAGPAGLMLAGELRLGGVDVMVLEQLPQRTGESRGLGFTARTMEVFDQRGILPAFGPVETSTQGHFGGRPVDFGVLEGAHYGVKAVPQSTTESVLEEWALGRGAELLRGHTVRALTDEGDHVVVEVEGPDGPRSLTTRYVVGCDGGRSTVRKAAGFDFPGTSASREMFLADIRGCEITPRPIGETVPLGMVMSAPLGDGVDRIIVCERGAPARRRTGPPPYQEVAAAWQRLTGQDISHGEPVWVSAFGDPARQVSAYRRGRVLLAGDSAHVHLPAGGQGMNVSVQDSVNLGWKLAAVVSGRAPAGLLDTYHEERHPVGRRLLMNTQAQGMLFLSGDEMQPLRDVLSELIRYDEVSRHLAGMVSGLDIRYEVDGGDHPLLGMRMPHQELVRAHGKTSTTELLHPARGVLLDIADDAEVREAATGWSDRVDIVTASLHDAPPQGPLSDARAVLVRPDGYVAWISPGSRAGLTEALDRWFGPAR”, the “soluble on expression in E. coli” value is reported as “soluble”.
For the sequence “MSLASKSIRILSVEDHPVVREGLVSIIGSQPDMVLVAQATNGSDAIAQFRTHHPDITLMDLRLPGISGTDALISIRGEFPRARVIILTTSDSHTEIDRALRAGAAAYILKSMPMNEMLAVIRSVHAGARHIPQEVASRLAENIGEESLTSRELEVLHLIRDGHRNKQIADELSISETTVNFHIKNIVGKMGANDRTHAVTIAVRRGLLQEGHHHHHH”, the “soluble on expression in E. coli” value is given as “soluble”.
As to “MSIAQEFEKANTHYSSNFTKRDLPLPPARKVAVVICMDARIDPAASLGLTEGDAHVIRNAGGRASDALRSVIISQRLLGTREIVVVHHTDCGMLTFSDNDLRGIVAKETGHNVDHFAFLPFGDLEKSVKDDVEFFKRNPLVLDVPVTGYIYDVKSGAINKVDS”, the “soluble on expression in E. coli” value is “soluble”.
“MKKIPLGTTDITLSRMGLGTWAIGGGPAWNGDLDRQICIDTILEAHRCGINLIDTAPGYNFGNSEVIVGQALKKLPREQVVVETKCGIVWERKGSLFNKVGDRQLYKNLSPESIREEVAASLQRLGIDYIDIYMTHWQSVPPFFTPIAETVAVLNELKSEGKIRAIGAANVDADHIREYLQYGELDIIQAKYSILDRAMENELLPLCRDNGIVVQVYSPLEQGLLTGTITRDYVPGGARANKVWFQRENMLKVIDMLEQWQPLCARYQCTIPTLALAWILKQSDLISILSGATAPEQVRENVAALNINLSDADATLMREMAEALER”: the “soluble on expression in E. coli” value was “soluble”.
For the sequence “MTKMSITVNQTVLHQLVKNVDGDSIKMESVLRDELLSITPEVEQMMLQLHQSYQNKAKAFGVFQEKSIFAQHLNRLLEQEIEFLGFSQYSTKLLADELGKYNFAESGTLILCQYNFLATDYLFIALLDSRHSMLVDEHLDIRRTEYLDITQFDIAARINLTDLQVNANSNRYLTFIKGRVGRKISDFFMDFLGAEEGLNPQVQNQCLLQAVSDYCDQGELNKEQTQAVKKQVFEYCKGQLSNGNNIELRELSDSLPTLNEQPFVVFTEKQNYGLEESIPPIRSTLKSLTKFSGSGKGVTLSFDAELLNTRIQWDPMTDTLTIKGLPPNLKDQLQKALKSENLEHHHHHH”, the “soluble on expression in E. coli” value is listed as “soluble”.
As for “MGSDKIHHHHHHMNETPLRLLEMLTQTREDLWRAAQALTERGVTRIILTGSGTSYHGALTARTFMQRWCALPVDVCWPFMLDDETLARSGKALVVGISQGGGSLSTLAAMERARNVGHITASMAGVAPATIDRAADYILTVPCGEETAGAKTKGYHCTVLNLMLLALAVAGQQQRLDGEQRRSLLLRMEKTFNHLPALVTASQAWAQTNALALRDSADIRLTGPATLFGTVQEGALKMLETLRCPVSGYEFEEFIHGIYNAFNAQSALIMLDPQPDARQDRLAQILGEWTPSIYRIGPQVENNGLNLNFPFVNDEDFAVFEYIIPLQMLCAILPPQKGINPAIPKDPQFHQKMKSKQEI”, the “soluble on expression in E. coli” value is “not soluble”.
With “MVKVYGSTVDNESRCTHYQTPLDIIAIKFKCCNKYYPCYKCHNEHESHKIQRWQANEFHEKAILCGVCNHEMTINDYMMIEACPKCDAHFNNRCKYHYHLYFEILEHHHHHH”, the “soluble on expression in E. coli” value is “soluble”.
On to “MSLTNNLTTKASLVSSAFSPVLVVGKKKELRQPVKIKAVNWHHKKRPVELQVGNFPPERYVLSPGINNIETSIPEVTAPCELPIILKEQGKTVSKINEKATPVKKWTVYLVQHTHTDIGYTKPQTEILSEHLRYIDYAIEYCEQTKDYTNDAKFRWTCESAWAVDEYLKNRPEEQVNKLKKYIAEGQIEVASMYFNMSEIVDENSFKTFLQPVKEFRKHGIPSALAMQNDVNGIAWCLADYLPDLGIKYLWMGEHHYKSQVPFNMPTVFQWESPSGKPILTYRADHYNTGNFWGIEQGDIQKTEPKLLHYLSELERKHYPFDAVGVQYSGYFTDNSPPSIIECKLIREWNEKYAYPKLRSATASEFMDYVTERYGDKIPAYRAEGHHHHHH”, for which the “soluble on expression in E. coli” value is given as “soluble”.
With “MIRVYIALGSNLAMPLQQVSAAREALAHLPRSRLVACSPLYRTKPLGPQDQPDFLNAVVALDTSLPPEQLLDHTQAIERNQGRVRKEQRWGPRTLDLDIMLYGDQVIKTDRLTIPHYGLKAREFMLYPLADIAPDLIFPDGESLSECLKRVDKNGLVLW”, the “soluble on expression in E. coli” value was “soluble”.
With “YLDLWQTQDAKIRAKLAAVFQAEQNLNEAAIAYCLARALPEETAIFFANSMVVRYAEFFWQLNDQQILPYFNRGANGIDGTLSTALGIAENHSPAVLLTGDLALLHDINGFLTLSKFTGSLTIIVINNQGGGIFEMLPIAEEKDIFEDYFATPQTVEFSKVCDLYGIEYQAIQTKADLMQTCAILPPRGVRLLEVKTNRNQAMTWLKDLFQ” the entry was “not soluble”.
In the case of “MSLSHSAEDSRRRELGAFLRSRRERLTPSATGISTGLRRRTPGLRREEVAMIAGVGTTWYTWLEQGRDVRPSVEVLTALSGALRLDAAEKRHLFTLAGRQLPERRRIAAGKVEGPLLHMLQSLVLQPAYVVGPRWDVLAWNDAAVAIFGDYGQLEGDARNIIHGVFTDPHRRHLLADWEQVARATLAAFRAESARYVGDPDFERLIALMMRSSPEFREWWPQRDVVHRLSGMKHLRHPTAGAMVFEHMSLSIDDGSDMKLIVYTPLAEQNSIAKLQSLLDAILRKEDRLKGIITITTDPNSSSVDKLAAALEHHHHHH”, the “soluble on expression in E. coli” value is on record as “soluble”.
The entry for “MDALIAQLQRQFRDYTISLYQQGFLDDQFTELKKLQDDGSPDFVSEVLSLFFEDCVKLISNMARALDTTGTVDFSQVGASVHQLKGSSSSVGAKRVKTLCVSFKECCEAKNYEGCVRCLQQVDIEYKALKTKLQDMFNLEKQIIQAGGIVPQVDIN” is “soluble”; for “MSSTMKDTQEAPVRWSRNWTPDAIRALVDQDNGKLDARIYADQDLYQLELERVFGRSWLMLGHETHIPKIGDYLTTYMGEDPVIMVRQKDQSIKVFLNQCRHRGMRIVRSDGGNAKAFTCTYHGWAYDIAGNLVNVPFEKEAFCDKKEGDCGFDKADWGPLQARVETYKGLVFANWDPEAPDLKTYLSDAMPYMDVMLDRTEAGTEAIGGIQKWVIPCNWKFAAEQFCSDMYHAGTMSHLSGVLAGLPPEMDLTQIQLSKNGNQFRSAWGGHGAGWFINDSSILLSVVGPKITQYWTQGPAAEKAARRVPQLPILDMFGQHMTVFPTCSFLPGINTIRTWHPRGPNEVEVWAFVLVDADAPEDIKEEFRLQNIRTFNAGGVFEQDDGENWVEIQRVMRGHKAKSTSLCAKMGLNVPNKNNPAYPGKTAYVYAEEAARGMYHHWSRMMSEPSWDTLKP” it is “soluble”.
On to “AIASSLVYPVSQSYHYLSTSNNRLFSAVPSEEKSNKEVKGKAQETSKENTSPATLQDSFGFQLKTGTPDRMPSSFDQATGSERAELEDPDLYRNPEKYVNSRVMIAPFGTKEKPLLIPSRYDSRIIGCTGREAPNDHGVYYMTVKENHDKVCPLCGQVFRLKKVAGGEEASHHHHE”, for which the “soluble on expression in E. coli” value was “soluble”.
Regarding “MMKKMMVLYNETSGSSESKEIAERFKKAAEARGEAVILQPSNPDIDPEEMRKNAKENQVGVLVVIGGDGTIHHAVQNFKDTIRDYQIGIIPGGTVNNFARVLSIPLKEEDAFETILAGQTTPVDFGMVNQDVMISTLTIGLLADTAANVTQQEKQKYGPLAFTKQFFRLLMKKKKYKLKIDGDERRWHGKAQLLTMTMTNSAGGFTNFDANATPDDGEVHIIILPKLVFYKFVYYLPKIIRGQLNEIPGVVYFSGSQFKISGEKDKKVQTRTDGDPTDDLPIKVTVEAGGLNVFVPETSTSTKE”, the “soluble on expression in E. coli” value is given as “not soluble”.
In the case of “MRIVAVTDIHGNMASTVALANILKKIEAELLLIAGDITHFSGGEIAKQILEPLLKLGVRVLAVMGNCDGKDVPKVLDELGINVHNARVEVKKVGVVGFGGSSVTPFSTIWEFSEEEIYSSLKRNYRSGDIVLTHAPPYRTRIDKTFSGIHAGSKGLRKFIEEEQPPICICGHIHEARGIDKIGETLVVNPGPLSRRYYAVIDSETWEVKLERLLEHHHHHH”, the “soluble on expression in E. coli” value was “soluble”.
In the case of “QFLSGQLSIKLWFDKVGHQLIVTILGAKDLPSREDGRPRNPYVKIYFLPDRSDKNKRRTKTVKKTLEPKWNQTFIYSPVHRREFRERMLEITLWDQARVREEESEFLGEILIELETALLDDEPHWYKLQ”, the “soluble on expression in E. coli” value is “soluble”.
Take “MGSDKIHHHHHHMNPINWLVLVATVAGRNGTLRVRLWRQMKAIGAAALRDGVYLLPARPELRQMLANWRDELLAADGMAHVLQVVEDDPATQAGWRALFDRSEAYQQWGEALAALLAQPPGAESDARRSLRQLRKELEAIAAIDFFAGESLKSARRQCNDAEKWLTRHYSPDEPLAVGGDIPRLELADYQQRLWATRARPWVDRVASAWLIRRFIDPAARFAWLTDVHACPAEALGFDFDGAAFTHIGERVTFEVLLASFGLEHDPALSRLGELVHALDVGGSVVPEGTGFEAVLGGSRSRIADDDLLLADISNVLDSLYAHFQEAARPQGSRAPTL”: the “soluble on expression in E. coli” value was “not soluble”.
Turning to “SAAAAFDPLGPLPVYLVSVRLGIYEDEHHRVWIVANVETSHSSHGNRRRTHVTVHLWKLIPQQVIPFNPLNYDFLPTTWKLESRNIYWATDGTHWRLLDHSQLGDTEQLILMLVLG”, the “soluble on expression in E. coli” value is reported as “soluble”.
As to “AAIGSCSKEYRVLLGQLQKQTDLMQDTSRLLDPYIRIQGLDVPKLREHCRERPGAFPSEETLRGLGRRGFLQTLNATLGCVLHRLADLEQRLPKAQDLERSGLNIEDLEKLQMARPNILGLRNNIYCMAQLLDNSDTAEPTKAGRGASQPPTPTPASDAFQRKLEGCRFLHGYHRFMHSVGRVFSKW”, the “soluble on expression in E. coli” value is listed as “soluble”.
With “MSLGSVFRHIEGGMLFPQGSVTCIGAFDGLHLGHRALVRHALQRATALHLPTVALSFEPLPREYFASTTPPPRLTLTRAKIQGLHRFGADSVGLLRFDSRLASMSPQTFVERVLLGRLGVREVLIGPQFRFGHQRSGDIALLQRLGLEHGFTATEIPPLHLNNERISATKIRALLAAGDFAHAAELLGRPYMIGGRVVRGQQLGSTLGYPTANLRFPHPIALSGIYATWVHGIFEQPWPSVSSFGTRPTVAGVEPLLEVHLFDFHSDLYGRRIDVEFIAKLRDEETFPDLHTMTTQIHRDAQQARHILSEHRLRAEGHHHHHH”, the “soluble on expression in E. coli” value is “not soluble”.
In the case of “MSLSKSDDGDSEESFSISVQSGFEAMSQELCIVMCLKDLTSIVDIKTSSRPAMIGSLTDGSTETFWESGDEDKNKTKNITINCVKGINARYVSVHVDNSRDLGNKVTSMTFLTGKAVEELCRIKQVDLDSRHIGWVTSELPGGDNQIIKIELKGPENTLRVRQVKVLGWKDGESTKIAGQISASVAQQRSCEAETLRVFRLITSQVFGKLISGDAEEGHHHHHH”, the “soluble on expression in E. coli” value is listed as “soluble”.
In the case of “SREGVLYDGDSLAYIIAKHRQQLGELQGGVAGTLMTNLAVEQAFERLGIPFARANVGDRYVSELLQQNDWYLGAENSGHIICRDKHTTGDGIISALQVLYALRDTGLTLADFMRDVPFF”, the “soluble on expression in E. coli” value was “not soluble”.
The entry for “MHNFIYITAPSLEEAERIAKRLLEKKLAACVNIFPIKSFFWWEGKIEAATEFAMIVKTRSEKFAEVRDEVKAMHSYTTPCICAIPIERGLKEFLDWIDETVE” is “soluble”.
